Among the data in article PMC12822413 are Kd values, retold here.

The target of series [1] is TSHR on TSHR-293T cells (Homo sapiens) (UniProt P16473). The series can be described thus: flow cytometry. As to conditions: Flow: DPBS, 5 mM MgCl2, 4.5 g/L glucose, 0.1 mg/mL yeast tRNA, 1 mg/mL BSA, 4 C 30 min; SPR: DPBS, 5 mM Mg2+, pH 7.4, 25 C. In general terms: Flow cytometry measures light scatter and fluorescence of single cells or particles in a stream.
Series [2] has as its target endogenous TSHR on Graves' orbital fibroblasts (GOFs) (Homo sapiens) (UniProt P16473). The series can be described thus: flow cytometry. Conditions: Flow: DPBS, 5 mM MgCl2, 4.5 g/L glucose, 0.1 mg/mL yeast tRNA, 1 mg/mL BSA, 4 C 30 min; SPR: DPBS, 5 mM Mg2+, pH 7.4, 25 C.

Sequence of TSHR on TSHR-293T cells (Homo sapiens) (P16473 21-764): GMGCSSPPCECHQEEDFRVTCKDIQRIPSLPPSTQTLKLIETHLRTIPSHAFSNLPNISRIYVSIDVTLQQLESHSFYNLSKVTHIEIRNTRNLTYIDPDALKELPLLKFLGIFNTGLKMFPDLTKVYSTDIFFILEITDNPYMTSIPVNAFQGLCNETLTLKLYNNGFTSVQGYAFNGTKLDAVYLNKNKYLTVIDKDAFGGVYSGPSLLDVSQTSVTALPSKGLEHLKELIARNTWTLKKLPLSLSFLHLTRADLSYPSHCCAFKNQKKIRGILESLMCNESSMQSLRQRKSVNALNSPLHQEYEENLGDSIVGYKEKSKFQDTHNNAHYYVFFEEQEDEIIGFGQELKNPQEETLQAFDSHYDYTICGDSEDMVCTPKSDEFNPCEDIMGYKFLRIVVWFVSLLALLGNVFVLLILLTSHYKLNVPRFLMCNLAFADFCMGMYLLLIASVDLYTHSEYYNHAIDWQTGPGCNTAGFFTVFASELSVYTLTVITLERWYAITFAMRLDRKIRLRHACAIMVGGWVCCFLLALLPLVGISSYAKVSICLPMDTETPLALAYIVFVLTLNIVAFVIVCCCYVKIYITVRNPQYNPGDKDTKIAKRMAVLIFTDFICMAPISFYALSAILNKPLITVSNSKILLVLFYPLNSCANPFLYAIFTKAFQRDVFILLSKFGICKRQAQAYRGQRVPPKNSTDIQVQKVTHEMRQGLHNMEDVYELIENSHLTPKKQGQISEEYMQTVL
Sequence of endogenous TSHR on Graves' orbital fibroblasts (GOFs) (Homo sapiens) (P16473 21-764): as above

Usually Kd stands for the equilibrium constant for the complex coming apart. As to “ACCGACCGTGCTGGACTCAGATGAACAATCGATGGAAGATTGGGTCGCACCGGCCTCTTTCACTATGAGCGAGCCTGGCG [YC3]”, the values for the Kd in series [1] and in series [2] were 260 nM and 99.2 nM, respectively.
